Two substances from publication PMC2693034 can be followed below.

A word on the stoichiometry N: it is the number of molecules, sites or subunits per partner or assembly.

Assay [1] concerns the target Qn(1-57), N-terminal domain of IcmQ (Legionella pneumophila). In words: SEC. (In general: Size exclusion chromatography separates by hydrodynamic size, large species first.)
Assay [2] deals with IcmQ with a C-terminal 6xHis-tag (Legionella pneumophila). In words: SEC.
Assay [3] has the same target. In words: […].

The substance “Qn(1-57), N-terminal domain of IcmQ (domain or fragment)” returned a stoichiometry N in assay [1] of 2. Regarding “IcmQ with a C-terminal 6xHis-tag (natural protein)”, the stoichiometry N in assay [2] and in assay [3] was 2 each time.
